Columns and labels:
GqqA = molecular target: T1, GqqA (Komagataeibacter europaeus, UniProt A0A0M0ELU2); assay: X-ray crystal structure, […] Å; assay type: binding; conditions: ACT regulatory domain at dimer interface, one per monomer; co-purified, not added
T1 construct: E. coli BL21(DE3); homodimer of 61 kDa; primers encode N-terminus MNGERIIA and C-terminus LRRKP; PDT domain 1-180, ACT domain 194-281

SeGqqA = molecular target: T2, SeGqqA (Komagataeibacter europaeus, UniProt A0A0M0ELU2, DEL86-170); assay: X-ray crystal structure (SAD), […] Å; assay type: binding; conditions: ACT regulatory domain; not added
T2 construct: gene gqqA; selenomethionine-substituted GqqA; residues 86-170 lost by proteolysis during crystallization (not engineered; termini V85 and His171); made as full length with C-terminal TEV site and His6 tag in E. coli BL21(DE3)
T2 sequence (A0A0M0ELU2 with tags, fused parts or gaps DEL86-170): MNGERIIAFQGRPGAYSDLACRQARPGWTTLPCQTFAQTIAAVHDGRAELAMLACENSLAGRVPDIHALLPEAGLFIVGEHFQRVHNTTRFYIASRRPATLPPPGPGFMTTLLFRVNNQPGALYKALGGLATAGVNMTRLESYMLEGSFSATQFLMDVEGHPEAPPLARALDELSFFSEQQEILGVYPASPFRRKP

[1] = molecular target: the molecule itself; assay: dynamic light scattering; GqqA 3.6 mg/ml in 0.1 M K2HPO4 pH 5.0, 150 mM NaCl, 20 °C; hydrodynamic radius 3.9 ± 0.1 nm; long-term measurement at room temperature for 4 days
purified protein [2] = substrate: CCCCCCCC(=O)CC(=O)N[C@H]1CCOC1=O; assay: purified protein; assay type: biochemical, Komagataeibacter europaeus; conditions: 5 mM EPPS pH 8.0, 0.5 mM Phenol Red, 30 °C, substrate 0-65 mM
purified protein [3] = substrate: CCCCCCCCCC(=O)CC(=O)N[C@H]1CCOC1=O; assay: purified protein; assay type: biochemical, Komagataeibacter europaeus; conditions: 5 mM EPPS pH 8.0, 0.5 mM Phenol Red, 30 °C, substrate 0-65 mM
purified protein [4] = substrate: CCCC(=O)CC(=O)N[C@H]1CCOC1=O; assay: purified protein; assay type: biochemical, Komagataeibacter europaeus; conditions: 5 mM EPPS pH 8.0, 0.5 mM Phenol Red, 30 °C, substrate 0-65 mM
purified protein [5] = substrate: CCCCCC(=O)CC(=O)N[C@H]1CCOC1=O; assay: purified protein; assay type: biochemical, Komagataeibacter europaeus; conditions: 5 mM EPPS pH 8.0, 0.5 mM Phenol Red, 30 °C, substrate 0-65 mM

In the case of `N[C@@H](Cc1ccccc1)C(=O)O` [L-Phe], the “X-ray crystal structure, 2.5 Å” value (GqqA) is reported as “within the dimer interface we identified two L-Phe molecules” and the “X-ray crystal structure (SAD), 1.7 Å” value (SeGqqA) is reported as “L-Phe is also bound in the truncated SeGqqA”.

B1: GqqA (enzyme, Komagataeibacter europaeus CECT 8546)
chain: MNGERIIAFQGRPGAYSDLACRQARPGWTTLPCQTFAQTIAAVHDGRAELAMLACENSLAGRVPDIHALLPEAGLFIVGEHFQRVEHCLLGIPGSTLADARRIHTHPVAMAQVRGIITELGLDPVVEFDTAGAAEMVREWGRKEDVAVASALAAELNGLEILRRNVEDATHNTTRFYIASRRPATLPPPGPGFMTTLLFRVNNQPGALYKALGGLATAGVNMTRLESYMLEGSFSATQFLMDVEGHPEAPPLARALDELSFFSEQQEILGVYPASPFRRKP
notes: GqqA, quorum quenching N-acyl-homoserine lactone acylase / prephenate dehydratase of Komagataeibacter europaeus CECT 8546; 281 amino acid residues, about 30.5 kDa; PDT domain 1-180, ACT domain 194-281; the gene was integrated in pET21a; no removal of the tag by TEV is described; also called native GqqA; GqqA wt; source: E. coli BL21 (DE3), purified (Ni-NTA, size-exclusion chromatography)
With B1 the “stoichiometry N” value [1] was 2, the Km (purified protein [2]) was 2.36 ± 0.35 mM and the Vmax (purified protein [2]) was 152 µmol/min/mg. It also gave a Vmax/Km (purified protein [2]) of 64500 µL/min/mg, a Km (purified protein [3]) of 16.7 ± 0.5 mM and a Vmax (purified protein [3]) of 13.8 µmol/min/mg. The Vmax/Km (purified protein [3]) was 820 µL/min/mg, the Km (purified protein [4]) was 6.89 ± 0.15 mM and the Vmax (purified protein [4]) was 109 µmol/min/mg. The Vmax/Km (purified protein [4]) was 15900 µL/min/mg, the Km (purified protein [5]) was 4.87 ± 0.12 mM and the Vmax (purified protein [5]) was 117 µmol/min/mg. For the same molecule, the Vmax/Km (purified protein [5]) was 24100 µL/min/mg.

Reference: paper PMC8192741, “The Komagataeibacter europaeus GqqA is the prototype of a novel bifunctional N-Acyl-homoserine lactone acylase with prephenate dehydratase activity” (Scientific Reports, 2021)
